Experiment [1] has as its target Recombinant human ApoER2 (R&D Systems #3520-AR) (human) (UniProt Q14114). Description: ELISA on plates coated with 1 µg/ml recombinant human ApoER2; sample: Apical/Luminal medium of the transwell with Empty Filter. In general terms: ELISA stands for enzyme-linked immunosorbent assay.
Experiment [2] has the same target. As to the kind of experiment: ELISA on plates coated with 1 µg/ml recombinant human ApoER2; sample: Basolateral/Abluminal medium of the transwell with hCMEC/D3 cells, antibody premixed with a 10-fold excess of soluble recombinant human ApoER2.
The target is the same in experiment [3]. As to the kind of experiment: ELISA on plates coated with 1 µg/ml recombinant human ApoER2; sample: Basolateral/Abluminal medium of the transwell with hCMEC/D3 cells.
For experiment [4] the target is unchanged. Description: ELISA on plates coated with 1 µg/ml recombinant human ApoER2; sample: Basolateral/Abluminal medium of the transwell with Empty Filter.
The target is the same in experiment [5]. Description: ELISA on plates coated with 1 µg/ml recombinant human ApoER2; sample: Apical/Luminal medium of the transwell with hCMEC/D3 cells.
Experiment [6] has the same target. Description: direct ELISA: wells coated with 1 ug/ml recombinant human ApoER2, antibody titrated, HRP anti-mouse IgG detection.
Experiment [7] shares this target. Description: ELISA on plates coated with 1 µg/ml recombinant human ApoER2; sample: Apical/Luminal medium of the transwell with hCMEC/D3 cells, antibody premixed with a 10-fold excess of soluble recombinant human ApoER2 (low value put down to interference in the ELISA).

Sequence of UniProt Q14114 (Q14114 other isoform, or with tags, fused parts or gaps limits assumed): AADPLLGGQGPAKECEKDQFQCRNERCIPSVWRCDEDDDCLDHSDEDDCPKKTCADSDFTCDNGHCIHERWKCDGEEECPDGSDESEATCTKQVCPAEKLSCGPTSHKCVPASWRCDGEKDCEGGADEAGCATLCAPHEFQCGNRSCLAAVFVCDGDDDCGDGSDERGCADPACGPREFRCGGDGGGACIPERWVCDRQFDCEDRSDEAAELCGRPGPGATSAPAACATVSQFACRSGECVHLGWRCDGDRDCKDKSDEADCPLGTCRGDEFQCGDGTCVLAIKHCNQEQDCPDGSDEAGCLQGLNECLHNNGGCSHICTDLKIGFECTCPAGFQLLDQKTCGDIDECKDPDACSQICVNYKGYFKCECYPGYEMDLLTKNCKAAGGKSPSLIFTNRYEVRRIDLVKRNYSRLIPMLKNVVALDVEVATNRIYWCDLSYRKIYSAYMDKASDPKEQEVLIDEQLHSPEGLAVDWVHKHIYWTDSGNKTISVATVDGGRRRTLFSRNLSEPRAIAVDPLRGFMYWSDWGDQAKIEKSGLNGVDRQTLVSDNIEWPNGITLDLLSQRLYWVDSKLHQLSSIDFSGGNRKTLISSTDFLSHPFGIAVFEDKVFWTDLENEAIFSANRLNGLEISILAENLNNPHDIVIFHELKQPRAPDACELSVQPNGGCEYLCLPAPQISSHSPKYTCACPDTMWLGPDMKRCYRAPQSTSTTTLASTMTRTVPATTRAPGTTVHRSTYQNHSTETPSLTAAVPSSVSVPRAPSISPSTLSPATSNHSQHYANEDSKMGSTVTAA

As for “mouse monoclonal anti-human ApoER2 antibody (Abcam ab58216)”, the Volume Adjusted OD450nm in experiment [1] came to 2.75 OD450nm; in experiment [2], 0.0789 OD450nm; in experiment [3], 0.138 OD450nm; in experiment [4] it was 0.362 OD450nm; in experiment [5], 3.57 OD450nm; in experiment [7], 0.537 OD450nm. Further, in experiment [6], the IC50 (commonly the concentration needed to halve the response being measured) was determined as 0.068 µg/mL.

(Values after US20130149237A1.)
